Test results published in PMC4383751 (Protein & Cell, 2015).

B1: PKM2^K305Q (acetylation mimic of K305) (enzyme)
chain: not shown
B2: PKM2^K422R (a patient-derived mutation) (enzyme)
chain: not shown
B3: PKM2^R399E (a dimeric mutant) (enzyme)
chain: not shown
B4: PKM2^Y105E (phosphorylation mimic of Y105) (enzyme)
chain: not shown

Experiments:
[1] = target: the molecule itself; experiment: cell-based or functional assay
[2] = target: the molecule itself; experiment: SEC; gel filtration on Superdex 200 10/300 GL, in the presence of FBP; similar protein concentrations and conditions for all proteins
[3] = target: the molecule itself; experiment: crystal structure; crystals grown at 18°C by hanging-drop vapor diffusion, protein 15-20 mg/mL, in the absence of FBP (malonate for K305Q, L-proline for Y105E)

Protein	normalized kcat/Km of pyruvate kinase activity (PKM2^WT as standard) in the presence of FBP [1]	stoichiometry N [2]	stoichiometry N [3]
B1	0.2 relative to kcat/Km of PKM2^WT	2	4
B2	–	4	–
B3	–	–	4
B4	–	–	4
